From patent US20190359719A1 (published 2019)
Numbering of substitutions follows the chain as printed. Like-named read-outs stand apart in the source and are kept apart here.

B1: E1 anti-c-Met antibody in IgG format (antibody, V domains shown)
VH: QVQLVQSGAEVKKPGASVKVSCKTSGYTFSGDYMHWVRQAPGQGLEWMGWINPNSGGTNYAQKFQGRVTMTRDTSISTAYMELSRLRSDDTAVYYCAREPGRDYYYYDGMDVWGQGTTVTVSS
VL: QSVVTQPPSVSGAPGQRVTISCTGSSSNIGAGYDVHWYQQLPGTVPKLLIYGNSNRPSGVPDRFSGSKSGTSASLAITGLQAEDEADYYCQSYDSSLSAYVFGTGTKVTVL
B2: A1-4 anti-c-Met antibody (antibody, V domains shown)
VH: QVQLQESGPGLVKPSQTLSLTCTVSGGSISSGGYYWSWIRQHPGKGLEWIGESSHSGSTNYNPSLKSRVTISVDTSKNQFSLKLSSVTAADTAVYYCARGRDGYYFDAWGQGTLVTVSS
VL: LPVLTQPASVSGSPGQSITISCTGTSSDVGGYPYVSWYQQHPGKAPKLMIYVVSDRPSGVSTRFSGSKSGNTASLTISGLQAEDEADYYCSSYRSSSALVVFGGGTQLTVL
B3: A2 (antibody, V domains shown)
VH: QVQLQESGPGLVKPSGTLSLTCAVSGGSISRSNWWSWVRQPPGKGLEWIGEVYHSGSTNYNPSLKSRVTISVDKSKNQFSLKVNSVTAADTAVYYCARDSDGGYYFDYWGQGTLVTVSS
VL: LPVLTQPASVSGSPGQSITISCTGTSSDVGGYKYVSWYQQHPGKAPKLLIYDVTDRPSGVSNRFSGSQSGNTASLTISGLQTEDEADYYCSSYTDNGALVVFGGGTKLTVL
B4: A1-32 anti-c-Met antibody (antibody, V domains shown)
VH: B2 VH with S54T, K66D, F106L, A108Q
VL: B2 VL with S27F, V52D, Y93F, S97A, Q107K
B5: A1 anti-c-Met antibody in IgG format (antibody, V domains shown)
VH: B2 VH with S53I, S54N, Y105D, A108P
VL: B2 VL with P33N, V52D, Q107K
B6: El-A18 (E1 derived anti-c-Met antibody) (antibody, V domains shown)
VH: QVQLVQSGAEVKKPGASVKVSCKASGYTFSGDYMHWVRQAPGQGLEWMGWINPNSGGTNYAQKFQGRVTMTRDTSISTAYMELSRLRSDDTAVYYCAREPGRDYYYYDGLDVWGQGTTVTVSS
VL: B1 VL with T23I, S26A, Y33H, V45A, D94S
B7: El-B19 (E1 derived anti-c-Met antibody) (antibody, V domains shown)
VH: B1 VH with T24A, Y27F, M34I, M110L
VL: B1 VL with T23L, S26A, Y33H, V45A, D94S, Y100V, V101L
B8: H8 anti-c-Met antibody in IgG format (antibody, V domains shown)
VH: EVQLVQSGAEVKKPGASVKVSCKASGYTFSSYYMHWVRQAPGQGLEWMGWINPNSGNTGYAQKFQGRVTMTRNTSISTAYMELSSLRSEDTAVYYCARRGTTVSFDYWGQGTLVTVS
VL: QLVLTQSPSVSVAPGQRVTISCSGSNSNIGNNYVSWYHHLPGTAPKLLIYDNNKRPSGIPDRFSGSKSGTSATLGITGLQPGDEAHYYCGTWDSTLSAGVFGGGTKLTVL
B9: El-BR1 (E1 derived anti-c-Met antibody) (antibody, V domains shown)
VH: B1 VH with T24A, Y27S, M34L, G101A, M110L
VL: B1 VL with T23L, S26A, V45A, D94S, Y100V, V101L
B10: F3 anti-c-Met antibody in IgG format (antibody, V domains shown)
VH: QVQLVESGPGLVKPSGTLSLTCAVSGGSISSSNWWSWVRQPPGKGLEWIGEIYHSGSTNYNPSLKSRVTISVDKSKNQFSLKLSSVTAADTAVYYCARSAYGDYFLDYWGQGTLVTVSS
VL: QSVLTQPASVSGSPGQSITISCTGTSSDVGGYNYVSWYQQHPGKAPKLLIYDVDSRPSGVSNRFSGSKSGNTASLTISGLQAEDEADYYCSSFTSSSTLVVFGGGTKVTVL
B11: A1-6 anti-c-Met antibody (antibody, V domains shown)
VH: B2 VH with S53I, S54T, Y105D, F106I
VL: B2 VL with S27W, V52D, S96V, Q107K
B12: B12 anti-c-Met antibody in IgG format (antibody, V domains shown)
VH: QVQLVESGAEVKKPGASVKVSCKASGYTFTGYYMHWVRQAPGQGLEWMGWINPNSGNTGYAQKFQGRVTMTRNTSISTAYMELSSLRSEDTAVYYCARRGTTVSFDYWGQGTTVTVSS
VL: QAVLTQPPSVSGSPGQSITISCTGTSSDVGTFNLVSWYQQHPGKAPKLIIYEVSKRPSDVSPRYSGSKSGTTASLTISVLQTEDEADYYCCSYTTSSSYVFGIGTKVTVL
B13: A1-24 anti-c-Met antibody (antibody, V domains shown)
VH: B2 VH with S54T, K66E, G103S, Y105D
VL: B2 VL with S27F, P33N, V52D, Y93F, S97A, Q107K
B14: El-B11 (E1 derived anti-c-Met antibody) (antibody, V domains shown)
VH: B1 VH with T24A, M34I, G101A, M110L
VL: B1 VL with T23I, V45A, P57I, D94S, Y100V, V101L
B15: El-A14 (E1 derived anti-c-Met antibody) (antibody, V domains shown)
VH: B1 VH with T24A, M34I, G101A, M110L
VL: B1 VL with T23I, Y33H, V45A, D94S
B16: El-A11 (E1 derived anti-c-Met antibody) (antibody, V domains shown)
VH: B1 VH with T24A, Y27F, M34I, G101A, M110L
VL: B1 VL with T23L, Y33H, V45A, P57I, D94S, V101L
B17: A8 (antibody, V domains shown)
VH: QITLKESGAEVKKPGSSVKVSCKASGGTFSSYGISWVRQAPGQGLEWMGGIIPMFGTANYAQKFQGRVTITADESTSTAYMELSSLRSEDTAVYYCARDEVAPDYYGSGPSYGMDVWGQGTMVTVSS
VL: SYELMQPASVSGSPGQSITISCTGTSSDVGGYDHVSWYQQHPGKAPKLMIYAVRNRPSGVPDRFSGSKSGNTASLTISGLQAEDEADYYCSSYTSSLTYVFGTGTKVTVL
B18: A1-9 anti-c-Met antibody (antibody, V domains shown)
VH: B2 VH with S53I, F106L, A108Q
VL: B2 VL with P33N, V52N, Y93F, Q107K
B19: A1-2 anti-c-Met antibody (antibody, V domains shown)
VH: B2 VH with S54T, Y105D
VL: B2 VL with S27F, P33N, V52D, Y93F, Q107K
B20: D6 anti-c-Met antibody in IgG format (antibody, V domains shown)
VH: QVQLQQWGAGLLKPSETLSLTCAVYGGSFSGYYWSWIRQPPGKGLEWIGEINHSGSTNYNPSLKSRVTISVDTSKNQFSLKLSSVTAADTAVYYCARGRDGYDFDPWGQGTLVTVSS
VL: QSVLTQPPSASGSPGQSVTISCTGTSSDVGGYNYVSWYQQHPGKAPKLMIYEVSKRPSGVPDRFSGSKSGNTASLTVSGLQAEDEADYYCSSYAGSNNLVVFGGGTQLTVL
B21: A1-8 (antibody, V domains shown)
VH: B2 VH with S53I, K66E, Y105D, F106L, A108R
VL: B2 VL with V52R, S97A, Q107K
B22: El-A10 (E1 derived anti-c-Met antibody) (antibody, V domains shown)
VH: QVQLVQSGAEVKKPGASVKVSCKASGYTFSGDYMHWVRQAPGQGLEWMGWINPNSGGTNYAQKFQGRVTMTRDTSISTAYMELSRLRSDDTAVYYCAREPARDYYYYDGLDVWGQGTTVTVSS
VL: B1 VL with T23L, S26A, Y33H, V45A, D94S

Columns and labels:
[1] = target: T1, recombinant c-Met extracellular domain (R&D Systems cat#358-MT-100/CF) (UniProt P08581 25-932); assay: ELISA, blocking of HGF binding to c-Met
T1 chain: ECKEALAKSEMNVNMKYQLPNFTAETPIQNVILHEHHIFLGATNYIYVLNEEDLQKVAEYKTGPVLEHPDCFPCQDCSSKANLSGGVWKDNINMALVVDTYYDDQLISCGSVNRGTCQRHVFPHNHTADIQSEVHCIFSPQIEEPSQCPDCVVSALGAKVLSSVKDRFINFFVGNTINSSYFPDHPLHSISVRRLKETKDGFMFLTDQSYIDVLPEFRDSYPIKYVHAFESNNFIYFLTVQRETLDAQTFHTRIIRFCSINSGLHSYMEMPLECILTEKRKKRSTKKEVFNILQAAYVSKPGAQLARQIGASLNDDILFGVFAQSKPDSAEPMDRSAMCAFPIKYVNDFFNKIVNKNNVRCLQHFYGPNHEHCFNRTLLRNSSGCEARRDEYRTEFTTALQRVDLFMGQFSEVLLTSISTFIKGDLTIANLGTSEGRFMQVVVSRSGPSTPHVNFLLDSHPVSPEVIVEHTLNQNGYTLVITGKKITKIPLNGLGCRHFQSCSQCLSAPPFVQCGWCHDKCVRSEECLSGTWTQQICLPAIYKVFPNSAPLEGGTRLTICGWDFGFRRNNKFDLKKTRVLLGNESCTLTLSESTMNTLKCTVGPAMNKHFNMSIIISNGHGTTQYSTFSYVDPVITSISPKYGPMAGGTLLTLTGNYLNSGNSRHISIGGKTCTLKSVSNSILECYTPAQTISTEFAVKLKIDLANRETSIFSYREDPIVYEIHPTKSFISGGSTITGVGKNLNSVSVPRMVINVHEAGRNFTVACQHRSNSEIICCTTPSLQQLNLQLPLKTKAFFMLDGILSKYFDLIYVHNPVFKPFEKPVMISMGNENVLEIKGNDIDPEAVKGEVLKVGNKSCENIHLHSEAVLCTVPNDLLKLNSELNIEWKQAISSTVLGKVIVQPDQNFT

[2] = target: T1, recombinant c-Met extracellular domain …; assay: Octet Red (BLI)
[3] = target: T1, recombinant c-Met extracellular domain …; assay: Biacore SPR
[4] = target: T1, recombinant c-Met extracellular domain …; assay: Biacore SPR
[5] = target: T1, recombinant c-Met extracellular domain …; assay: ELISA, blocking of HGF binding to c-Met
[6] = target: T1, recombinant c-Met extracellular domain …; assay: Octet Red (BLI)
[7] = target: T1, recombinant c-Met extracellular domain …; assay: Octet Red (BLI)
[8] = target: T1, recombinant c-Met extracellular domain …; assay: Octet Red (BLI)

Binder	IC50 [1]	IC50 [5]	other results
B1	3.18 nM	–	Kd [2]: 4.5 nM; Ka [3]: 5.37e+07 M⁻¹; Kd [4]: 18.6 nM
B2	–	1.44 nM	–
B3	–	–	Kd [6]: 2.2 nM
B4	–	0.91 nM	–
B5	–	1.73 nM	Kd [7]: 0.8 nM; Ka [3]: 5.3e+08 M⁻¹; Kd [4]: 1.98 nM
B6	2.69 nM	–	–
B7	2.63 nM	–	–
B8	–	–	Kd [2]: 0.8 nM
B9	3.11 nM	–	–
B10	–	–	Kd [8]: 0.7 nM
B11	–	1.34 nM	–
B12	–	–	Kd [8]: 0.15 nM
B13	–	1.52 nM	–
B14	2.98 nM	–	–
B15	2.31 nM	–	–
B16	2.26 nM	–	–
B17	–	–	Kd [7]: 1.5 nM
B18	–	1.72 nM	–
B19	–	1.22 nM	–
B20	–	–	Kd [6]: 1.9 nM
B21	–	1.14 nM	–
B22	2.61 nM	–	–
